From patent US20240261333A1, “NOVEL TARGETS FOR ENHANCING ANTI-TUMOR IMMUNITY” (THE BROAD INSTITUTE, INC., priority 2021, published 2024)

Tests used:
CFL1 = CFL1 (UniProt P23528); test: co-IP, IgG control, C-FLAG B3GNT2 cell lysate, mass spectrometry
DEFA3 = DEFA3 (UniProt P59666); test: as above
EIF4G1 = EIF4G1 (UniProt Q04637); test: as above
EMD = EMD (UniProt P50402); test: as above
HNRNPU = HNRNPU (UniProt Q00839); test: as above
MTCH2 = MTCH2 (UniProt Q9Y6C9); test: as above
NCCRP1 = NCCRP1 (UniProt Q6ZVX7); test: as above
NCCRP1, sequence (Q6ZVX7 whole entry): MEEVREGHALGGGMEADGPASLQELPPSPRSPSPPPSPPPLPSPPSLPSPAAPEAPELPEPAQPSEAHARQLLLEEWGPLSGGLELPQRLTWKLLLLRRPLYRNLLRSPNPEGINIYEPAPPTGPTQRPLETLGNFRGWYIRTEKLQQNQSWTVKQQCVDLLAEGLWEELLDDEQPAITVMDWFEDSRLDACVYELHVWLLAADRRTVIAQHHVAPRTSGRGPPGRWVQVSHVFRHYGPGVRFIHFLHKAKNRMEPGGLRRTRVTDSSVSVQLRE

PBXIP1 = PBXIP1 (UniProt Q96AQ6); test: as above
RPL3 = RPL3 (UniProt P39023); test: as above
RPL5 = RPL5 (UniProt P46777); test: as above
RPS23 = RPS23 (UniProt P62266); test: as above
RPS8 = RPS8 (UniProt P62241); test: as above
TMEM59 = TMEM59 (UniProt Q9BXS4); test: as above
TXN = TXN (UniProt P10599); test: as above
ATP5F1B = ATP5F1B (UniProt P06576); test: co-IP with mouse IgG control, mass spectrometry; lysate of N-FLAG B3GNT2 cells
ATP5F1B, sequence (P06576 48-529 limits assumed): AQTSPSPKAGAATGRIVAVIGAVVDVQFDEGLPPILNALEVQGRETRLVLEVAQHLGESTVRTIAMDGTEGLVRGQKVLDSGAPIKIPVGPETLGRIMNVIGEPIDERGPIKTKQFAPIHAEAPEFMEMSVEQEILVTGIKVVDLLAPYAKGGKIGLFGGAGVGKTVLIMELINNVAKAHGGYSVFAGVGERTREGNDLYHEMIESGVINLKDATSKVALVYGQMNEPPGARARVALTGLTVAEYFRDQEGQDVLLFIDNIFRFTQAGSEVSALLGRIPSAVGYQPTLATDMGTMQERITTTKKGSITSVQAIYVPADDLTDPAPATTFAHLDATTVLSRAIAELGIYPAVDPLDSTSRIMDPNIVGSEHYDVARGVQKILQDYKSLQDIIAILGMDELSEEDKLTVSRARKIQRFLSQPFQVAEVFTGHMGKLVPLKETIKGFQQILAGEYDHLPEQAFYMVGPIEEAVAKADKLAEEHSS

CTSD = CTSD (UniProt P07339); test: as above
EEF1A1 = EEF1A1 (UniProt P68104); test: as above
EEF1A1, sequence (P68104 2-462 limits assumed): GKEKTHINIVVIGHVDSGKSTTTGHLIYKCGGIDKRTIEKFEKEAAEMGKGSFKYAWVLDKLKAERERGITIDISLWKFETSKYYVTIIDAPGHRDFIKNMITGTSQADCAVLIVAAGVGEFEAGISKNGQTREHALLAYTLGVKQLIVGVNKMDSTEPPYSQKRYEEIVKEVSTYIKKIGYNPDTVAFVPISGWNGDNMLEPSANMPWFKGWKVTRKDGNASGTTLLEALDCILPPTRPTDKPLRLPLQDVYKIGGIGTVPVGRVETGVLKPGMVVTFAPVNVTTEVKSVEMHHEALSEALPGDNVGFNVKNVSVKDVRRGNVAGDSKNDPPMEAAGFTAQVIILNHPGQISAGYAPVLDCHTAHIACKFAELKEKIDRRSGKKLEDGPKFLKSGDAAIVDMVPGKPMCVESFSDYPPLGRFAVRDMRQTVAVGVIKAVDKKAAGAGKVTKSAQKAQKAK

ENO1 = ENO1 (UniProt P06733); test: as above
LYZ = LYZ (UniProt P61626); test: as above
PCMT1 = PCMT1 (UniProt P22061); test: as above
PPIA = PPIA (UniProt P62937); test: as above
RCC2 = RCC2 (UniProt Q9P258); test: as above
RCC2, sequence (Q9P258 whole entry): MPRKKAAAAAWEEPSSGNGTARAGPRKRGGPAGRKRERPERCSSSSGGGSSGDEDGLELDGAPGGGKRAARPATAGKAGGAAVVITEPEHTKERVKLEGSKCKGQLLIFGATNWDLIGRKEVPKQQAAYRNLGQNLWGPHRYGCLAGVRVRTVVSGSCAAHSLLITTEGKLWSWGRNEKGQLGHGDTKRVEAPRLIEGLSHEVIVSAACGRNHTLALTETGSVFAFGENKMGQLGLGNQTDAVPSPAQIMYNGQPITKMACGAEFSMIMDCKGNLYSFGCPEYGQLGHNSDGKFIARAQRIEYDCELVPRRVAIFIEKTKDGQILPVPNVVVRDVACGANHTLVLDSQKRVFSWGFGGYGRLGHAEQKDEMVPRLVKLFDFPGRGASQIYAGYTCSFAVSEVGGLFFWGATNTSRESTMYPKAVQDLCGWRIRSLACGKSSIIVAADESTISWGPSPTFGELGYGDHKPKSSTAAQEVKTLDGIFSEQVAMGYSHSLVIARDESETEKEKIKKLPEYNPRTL

RPL10A = RPL10A (UniProt P62906); test: as above
RPL11 = RPL11 (UniProt P62913); test: as above
RPL35A = RPL35A (UniProt P18077); test: as above
RPL36 = RPL36 (UniProt Q9Y3U8); test: as above
RPL36A = RPL36A (UniProt P83881); test: as above
RPLP2 = RPLP2 (UniProt P05387); test: as above
RPLP2, sequence (P05387 whole entry): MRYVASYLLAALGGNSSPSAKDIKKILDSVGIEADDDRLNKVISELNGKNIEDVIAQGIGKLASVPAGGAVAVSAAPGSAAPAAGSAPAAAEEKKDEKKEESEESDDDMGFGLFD

RPN1 = RPN1 (UniProt P04843); test: as above
RPS11 = RPS11 (UniProt P62280); test: as above
RPS15A = RPS15A (UniProt P62244); test: as above
RPS17 = RPS17 (UniProt P08708); test: as above
S100A9 = S100A9 (UniProt P06702); test: as above
SLIRP = SLIRP (UniProt Q9GZT3); test: as above
SPRR2E = SPRR2E (UniProt P22531); test: as above
SPRR2E, sequence (P22531 whole entry): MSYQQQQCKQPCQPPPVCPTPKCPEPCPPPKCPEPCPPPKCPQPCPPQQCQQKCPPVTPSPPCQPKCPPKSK

STRAP = STRAP (UniProt Q9Y3F4); test: as above
STRAP, sequence (Q9Y3F4 whole entry): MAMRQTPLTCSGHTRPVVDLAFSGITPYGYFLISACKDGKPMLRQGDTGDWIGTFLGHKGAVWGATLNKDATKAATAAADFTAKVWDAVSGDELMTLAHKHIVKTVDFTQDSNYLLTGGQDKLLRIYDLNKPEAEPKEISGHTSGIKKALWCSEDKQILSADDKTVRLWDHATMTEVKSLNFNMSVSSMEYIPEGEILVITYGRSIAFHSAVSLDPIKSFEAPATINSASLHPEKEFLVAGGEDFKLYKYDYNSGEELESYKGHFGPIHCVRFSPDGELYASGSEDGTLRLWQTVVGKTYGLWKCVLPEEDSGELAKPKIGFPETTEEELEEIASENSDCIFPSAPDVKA

TPI1 = TPI1 (UniProt P60174); test: as above
YBX3 = YBX3 (UniProt P16989); test: as above
YBX3, sequence (P16989 2-372 limits assumed): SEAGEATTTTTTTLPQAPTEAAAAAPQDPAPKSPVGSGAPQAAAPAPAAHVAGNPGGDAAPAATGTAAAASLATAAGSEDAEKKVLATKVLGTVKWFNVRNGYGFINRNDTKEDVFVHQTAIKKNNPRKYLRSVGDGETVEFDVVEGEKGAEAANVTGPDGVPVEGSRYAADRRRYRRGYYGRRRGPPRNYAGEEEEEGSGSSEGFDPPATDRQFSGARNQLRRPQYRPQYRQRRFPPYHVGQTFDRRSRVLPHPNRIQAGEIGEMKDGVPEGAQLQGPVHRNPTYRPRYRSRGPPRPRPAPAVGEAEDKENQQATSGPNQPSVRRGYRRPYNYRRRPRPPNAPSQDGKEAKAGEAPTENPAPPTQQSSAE

YWHAZ = YWHAZ (UniProt P63104); test: as above
YWHAZ, sequence (P63104 whole entry): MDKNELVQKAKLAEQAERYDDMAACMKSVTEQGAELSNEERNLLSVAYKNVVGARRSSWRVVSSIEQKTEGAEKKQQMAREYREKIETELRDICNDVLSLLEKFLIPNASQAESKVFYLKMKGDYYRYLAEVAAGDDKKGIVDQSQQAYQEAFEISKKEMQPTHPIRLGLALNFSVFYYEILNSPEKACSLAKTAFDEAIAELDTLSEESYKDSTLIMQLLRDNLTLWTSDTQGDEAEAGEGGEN

DEFA3, sequence (P59666 65-94 limits assumed): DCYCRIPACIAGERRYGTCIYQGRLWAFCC
CFL1, sequence (P23528 2-166 limits assumed): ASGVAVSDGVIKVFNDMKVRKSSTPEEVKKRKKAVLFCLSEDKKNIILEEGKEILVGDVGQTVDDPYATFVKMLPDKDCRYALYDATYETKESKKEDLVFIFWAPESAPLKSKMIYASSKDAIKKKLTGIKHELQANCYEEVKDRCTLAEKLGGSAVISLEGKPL
EIF4G1, sequence (Q04637 41-1599 limits assumed): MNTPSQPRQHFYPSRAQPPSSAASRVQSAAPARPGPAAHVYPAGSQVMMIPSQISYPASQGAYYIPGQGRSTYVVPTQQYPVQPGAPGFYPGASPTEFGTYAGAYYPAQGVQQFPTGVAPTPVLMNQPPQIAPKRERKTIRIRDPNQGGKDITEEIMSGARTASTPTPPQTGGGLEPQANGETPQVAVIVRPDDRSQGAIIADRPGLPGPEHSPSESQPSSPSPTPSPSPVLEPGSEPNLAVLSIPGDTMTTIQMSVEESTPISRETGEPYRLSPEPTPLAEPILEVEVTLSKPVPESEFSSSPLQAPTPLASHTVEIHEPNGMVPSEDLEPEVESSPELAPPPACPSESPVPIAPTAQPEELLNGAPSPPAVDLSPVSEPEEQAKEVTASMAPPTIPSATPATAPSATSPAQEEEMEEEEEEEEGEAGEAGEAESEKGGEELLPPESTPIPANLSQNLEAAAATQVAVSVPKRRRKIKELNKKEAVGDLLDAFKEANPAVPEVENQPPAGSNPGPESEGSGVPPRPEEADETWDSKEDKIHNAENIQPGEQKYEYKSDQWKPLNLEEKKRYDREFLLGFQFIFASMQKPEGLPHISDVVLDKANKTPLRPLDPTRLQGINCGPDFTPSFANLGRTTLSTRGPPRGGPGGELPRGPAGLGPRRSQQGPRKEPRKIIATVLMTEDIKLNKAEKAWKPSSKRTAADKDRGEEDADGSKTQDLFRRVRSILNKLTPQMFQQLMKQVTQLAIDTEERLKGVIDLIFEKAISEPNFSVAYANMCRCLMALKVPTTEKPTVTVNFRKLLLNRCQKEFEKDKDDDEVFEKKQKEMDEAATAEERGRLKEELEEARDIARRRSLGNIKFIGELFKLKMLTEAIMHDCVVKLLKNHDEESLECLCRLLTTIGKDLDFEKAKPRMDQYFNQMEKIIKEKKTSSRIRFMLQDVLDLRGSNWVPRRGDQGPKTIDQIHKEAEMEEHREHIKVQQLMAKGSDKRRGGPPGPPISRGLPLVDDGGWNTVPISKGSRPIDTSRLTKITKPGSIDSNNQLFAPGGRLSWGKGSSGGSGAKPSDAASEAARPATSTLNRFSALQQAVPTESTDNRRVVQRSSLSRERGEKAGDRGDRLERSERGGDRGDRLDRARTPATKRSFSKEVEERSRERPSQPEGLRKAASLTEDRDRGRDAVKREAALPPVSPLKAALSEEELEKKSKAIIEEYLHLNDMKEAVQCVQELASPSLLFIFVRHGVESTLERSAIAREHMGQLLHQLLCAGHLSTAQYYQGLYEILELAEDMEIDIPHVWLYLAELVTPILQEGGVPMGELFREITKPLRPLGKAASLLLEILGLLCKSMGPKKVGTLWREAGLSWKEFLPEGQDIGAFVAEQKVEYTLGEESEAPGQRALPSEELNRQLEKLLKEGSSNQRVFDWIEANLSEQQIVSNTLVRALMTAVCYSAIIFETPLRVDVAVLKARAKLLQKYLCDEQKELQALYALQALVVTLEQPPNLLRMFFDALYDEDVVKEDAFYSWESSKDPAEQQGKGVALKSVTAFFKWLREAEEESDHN
EMD, sequence (P50402 whole entry): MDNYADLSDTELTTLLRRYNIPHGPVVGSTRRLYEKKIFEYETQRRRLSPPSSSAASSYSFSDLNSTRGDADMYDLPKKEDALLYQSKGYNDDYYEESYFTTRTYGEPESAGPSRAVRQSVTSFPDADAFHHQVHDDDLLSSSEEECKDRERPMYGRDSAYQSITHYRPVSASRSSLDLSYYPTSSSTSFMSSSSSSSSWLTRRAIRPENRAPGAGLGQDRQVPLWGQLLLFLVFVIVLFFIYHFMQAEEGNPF

“IgG control (Millipore Sigma 12-371) (antibody)” was tested, and the co-IP mass spectrometry count (CFL1) was 3, the co-IP mass spectrometry count (DEFA3) was 5 and the co-IP mass spectrometry count (EIF4G1) was 2. It also gave a co-IP mass spectrometry count (EMD) of 2, a co-IP mass spectrometry count (HNRNPU) of 0 and a co-IP mass spectrometry count (MTCH2) of 0. For the same substance, the co-IP mass spectrometry count (NCCRP1) was 0, the co-IP mass spectrometry count (PBXIP1) was 0 and the co-IP mass spectrometry count (RPL3) was 5. The co-IP mass spectrometry count (RPL5) was 0, the co-IP mass spectrometry count (RPS23) was 9 and the co-IP mass spectrometry count (RPS8) was 6. The co-IP mass spectrometry count (TMEM59) was 0, the co-IP mass spectrometry count (TXN) was 0 and the co-IP mass spectrometry count (ATP5F1B) was 0. The co-IP mass spectrometry count (CTSD) was 3, the co-IP mass spectrometry count (EEF1A1) was 8 and the co-IP mass spectrometry count (ENO1) was 2. The co-IP mass spectrometry count (LYZ) was 4, the co-IP mass spectrometry count (PCMT1) was 0 and the co-IP mass spectrometry count (PPIA) was 0. The co-IP mass spectrometry count (RCC2) was 0, the co-IP mass spectrometry count (RPL10A) was 4 and the co-IP mass spectrometry count (RPL11) was 3. It also gave a co-IP mass spectrometry count (RPL35A) of 0, a co-IP mass spectrometry count (RPL36) of 0 and a co-IP mass spectrometry count (RPL36A) of 2. It also gave a co-IP mass spectrometry count (RPLP2) of 3, a co-IP mass spectrometry count (RPN1) of 0 and a co-IP mass spectrometry count (RPS11) of 8. The co-IP mass spectrometry count (RPS15A) was 2, the co-IP mass spectrometry count (RPS17) was 3 and the co-IP mass spectrometry count (S100A9) was 0. The co-IP mass spectrometry count (SLIRP) was 0, the co-IP mass spectrometry count (SPRR2E) was 3 and the co-IP mass spectrometry count (STRAP) was 0. It also gave a co-IP mass spectrometry count (TPI1) of 2, a co-IP mass spectrometry count (YBX3) of 0 and a co-IP mass spectrometry count (YWHAZ) of 0.
